Results published in the supplement of paper PMC7877785.
± gives the uncertainty stated by the source.

Assay: self-splicing fitness, log relative to wild type (ln ratio); higher = more splicing; Tetrahymena group I intron in knt gene, E. coli kanamycin selection, DiMSum; sequences stand for … in CUCUCU…GGAGGGAAAAGUUAUCAGGCAUGCACCUGGUAGCUAGUCUUUAAACCAAUAGAUUGCAUCGGUUUAAAAGGCAAGACCGUCAAAUUGCGGGAAAGGGGUCAACAGCCGUUCAGUACCAAGUCUCAGGGGAAACUUUGAGAUGGCCUUGCAAAGGGUAUGGUAAUAAGCUGACGGACAUGGUCCUAACCACGCAGCCAAGUCCUAAGUCAACAGAUCUUCUGUUGAUAUGGAUGCAGUUCACAGACUAAAUGUCGGUCGGGGAAGAUGUAUUCUUCUCAUAAGAUAUAGUCGGACCUCUCCUUAAUGGGAGCUAGCGGAUGAAGUGAUGCAACACUGGAGCCGCUGGGAACUAAUUUGUAUGCGAAAGUAUAUUGAUUAGUUUUGGAGUACUCGUGGUCG
Outline: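 Colonies from six replicate transformations of E. coli BL21(DE3) were pooled and amplicon-sequenced on an Illumina HiSeq 2500. The library placed an intron with all eight P1ex-region nucleotides randomised inside the knt kanamycin-resistance gene on pET-22b(+), and cells grew overnight at 37°C or 30°C on LB agar with or without 25 μg/mL kanamycin (plus 100 μg/mL carbenicillin, 50 μM IPTG, 0.2% rhamnose). Fitness is the DiMSum error-weighted combination of wild-type-normalised replicate fold changes, kanamycin versus none.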

Sequence	self-splicing fitness (ln) (30 °C)	self-splicing fitness (ln) (37 °C)
CGGUAGCAAUAUUACGCCCC	-1.29 ± 0.24	-0.667 ± 0.29
CCUGAGCAAUAUUACGUGUG	-1.62 ± 0.058	-1.18 ± 0.066
CAAGAGCAAUAUUACGGGCG	-0.815 ± 0.1	-0.188 ± 0.12
GAAUAGCAAUAUUACGCGAA	-3.09 ± 0.21	-1.96 ± 0.2
CUACAGCAAUAUUACGAUAG	-2.04 ± 0.12	-1.16 ± 0.12
GUGCAGCAAUAUUACGAUCU	-0.791 ± 0.052	-0.194 ± 0.062
ACCAAGCAAUAUUACGUCGU	-2.34 ± 0.076	-1.88 ± 0.11
CUCCAGCAAUAUUACGGCGA	-2.16 ± 0.22	-1.6 ± 0.2
CGGGAGCAAUAUUACGGAAA	-3.53 ± 0.29	
UACUAGCAAUAUUACGGCCU	-1.25 ± 0.095	-0.333 ± 0.11
AUCGAGCAAUAUUACGGAAU	-3.47 ± 0.21	-1.79 ± 0.18
AAGGAGCAAUAUUACGCGUC	-2.96 ± 0.37	
GCUUAGCAAUAUUACGUCGU	-0.74 ± 0.097	0.231 ± 0.14
UCUCAGCAAUAUUACGACAU	-2.714 ± 0.018	-1.49 ± 0.034
CUGUAGCAAUAUUACGCACU	-1.84 ± 0.37	-2.25 ± 0.31
AUUCAGCAAUAUUACGCUAG	-1.56 ± 0.13	-0.152 ± 0.14
GCUUAGCAAUAUUACGCAGU	-2.45 ± 0.25	-3.16 ± 0.47
CACCAGCAAUAUUACGUGAC	-4.86 ± 0.26	-2.34 ± 0.21
ACCGAGCAAUAUUACGGUCA	-1.22 ± 0.12	-1.06 ± 0.14
UCGAAGCAAUAUUACGUAGG	-1.42 ± 0.08	-1.61 ± 0.1
AACUAGCAAUAUUACGGAUG	-2.26 ± 0.067	-1.03 ± 0.072
UACUAGCAAUAUUACGCUAC		-2.01 ± 0.34
UUUGAGCAAUAUUACGAGGU	-4.2 ± 0.46	-3.66 ± 0.46
UAGUAGCAAUAUUACGGCCA	-1.22 ± 0.26	0.0405 ± 0.27
UGGUAGCAAUAUUACGAUUA	-0.395 ± 0.055	0.0463 ± 0.066

Sequence	self-splicing fitness (ln) (30 °C)	self-splicing fitness (ln) (37 °C)
UCUGAGCAAUAUUACGUUGC	-3.64 ± 0.28	
CGUGAGCAAUAUUACGCACC	-1.07 ± 0.23	
GCAUAGCAAUAUUACGGGGG	-2.53 ± 0.23	-2.13 ± 0.23
UCAGAGCAAUAUUACGGUAU	-2.79 ± 0.2	-3.2 ± 0.44
GGCGAGCAAUAUUACGGUUC	-1.46 ± 0.13	-0.156 ± 0.13
GUUGAGCAAUAUUACGGAAC	-1.6 ± 0.43	
CUGCAGCAAUAUUACGCGCA	-3.37 ± 0.15	-2.13 ± 0.15
AAUAAGCAAUAUUACGAGUG	-1.05 ± 0.07	-0.56 ± 0.09
UGGCAGCAAUAUUACGUAUU	-2.73 ± 0.12	-1.27 ± 0.11
UCUUAGCAAUAUUACGUGCG	-2.14 ± 0.15	-1.67 ± 0.2
ACCUAGCAAUAUUACGGACG	-0.864 ± 0.07	-0.114 ± 0.1
GCAUAGCAAUAUUACGUGUG	-3.17 ± 0.14	-1.57 ± 0.12
GAUCAGCAAUAUUACGACGG	-2.63 ± 0.28	-0.19 ± 0.25
AGCAAGCAAUAUUACGGAUC	-2.73 ± 0.17	-1.08 ± 0.16
GUGAAGCAAUAUUACGCUCA	-1.35 ± 0.12	-1.62 ± 0.17
CGUCAGCAAUAUUACGUAUC	-3.54 ± 0.19	-2.06 ± 0.19
CGCUAGCAAUAUUACGGGGU	-3.83 ± 0.21	-3.12 ± 0.21
CACUAGCAAUAUUACGCGCU	-3.62 ± 0.16	-2.09 ± 0.14
CAAGAGCAAUAUUACGAUGA	-3.62 ± 0.33	-0.971 ± 0.17
GGGUAGCAAUAUUACGCGGA	-2.64 ± 0.27	-1.06 ± 0.13
UCAGAGCAAUAUUACGGAGA	-2.08 ± 0.15	-1.93 ± 0.17
ACCGAGCAAUAUUACGACGU	-2.04 ± 0.1	-0.637 ± 0.11
GGCGAGCAAUAUUACGCGAA	-2.45 ± 0.2	-1.33 ± 0.16
CGGAAGCAAUAUUACGUUCC	-2.32 ± 0.48	
UACGAGCAAUAUUACGGAUA	-2.3 ± 0.17	-1.43 ± 0.12

Sequence	self-splicing fitness (ln) (30 °C)	self-splicing fitness (ln) (37 °C)
AAGCAGCAAUAUUACGCCCU	-0.309 ± 0.14	0.0798 ± 0.18
CGGAAGCAAUAUUACGCGAG	-1.19 ± 0.15	-1.24 ± 0.27
CGGCAGCAAUAUUACGAUUC	-2.62 ± 0.17	-2.3 ± 0.19
UCAGAGCAAUAUUACGCCGG	-2.92 ± 0.24	
GCACAGCAAUAUUACGAUAG	-1.91 ± 0.087	-1.14 ± 0.1
GCAAAGCAAUAUUACGCGCC	-2.2 ± 0.26	-2.09 ± 0.36
GUACAGCAAUAUUACGUUUG	-3.06 ± 0.13	-2.59 ± 0.17
UCCUAGCAAUAUUACGACAG	-3.29 ± 0.25	-2.42 ± 0.31
AAUAAGCAAUAUUACGCGAG	-1.14 ± 0.097	-0.557 ± 0.1
ACGCAGCAAUAUUACGAGAG	-3.3 ± 0.11	-1.78 ± 0.1
CUGUAGCAAUAUUACGCGUC		-2.41 ± 0.45
GCGUAGCAAUAUUACGAUAA	-0.962 ± 0.21	-0.707 ± 0.24
ACAGAGCAAUAUUACGCACA		-1.39 ± 0.36
UGGGAGCAAUAUUACGGCAG	-3.28 ± 0.21	-1.34 ± 0.17
UAGAAGCAAUAUUACGUUAU	-3.81 ± 0.14	-2.76 ± 0.12
GUGUAGCAAUAUUACGCUAA	-1.77 ± 0.42	-1.01 ± 0.3
GGCGAGCAAUAUUACGAUAG	-1.89 ± 0.18	-2.67 ± 0.38
GGGUAGCAAUAUUACGUCUG	-1.21 ± 0.12	-1.15 ± 0.14
CAGUAGCAAUAUUACGAAAA	-3.58 ± 0.47	-1.8 ± 0.32
ACAAAGCAAUAUUACGUUGG	-2.44 ± 0.068	-1.57 ± 0.079
AGCUAGCAAUAUUACGGGGC	-3.25 ± 0.19	-2.5 ± 0.21
GUGUAGCAAUAUUACGCGAA	-2.15 ± 0.17	-0.555 ± 0.14
UGGCAGCAAUAUUACGUCCA	-1.23 ± 0.12	-0.471 ± 0.16
CCUCAGCAAUAUUACGUUUC	-3.04 ± 0.17	-2.44 ± 0.2
CAGAAGCAAUAUUACGGCUA	0.172 ± 0.11	-0.0647 ± 0.084

Sequence	self-splicing fitness (ln) (30 °C)	self-splicing fitness (ln) (37 °C)
UUGUAGCAAUAUUACGCGCU	-2.05 ± 0.16	-0.976 ± 0.11
GCACAGCAAUAUUACGGCAC	-0.752 ± 0.061	-0.122 ± 0.073
UGCAAGCAAUAUUACGUCCA	-0.254 ± 0.047	0.213 ± 0.07
GAUCAGCAAUAUUACGGCAG	-3.4 ± 0.33	-2.34 ± 0.27
CGGGAGCAAUAUUACGGUCC		-2.32 ± 0.24
AGGCAGCAAUAUUACGUUAU	-1.78 ± 0.08	-1.78 ± 0.11
UGGGAGCAAUAUUACGGCCU	-2.18 ± 0.16	-1.9 ± 0.2
GUGCAGCAAUAUUACGAGCU	-1.45 ± 0.062	-0.353 ± 0.082
GCGCAGCAAUAUUACGGGCU	-3.6 ± 0.23	-3.02 ± 0.27
CAGUAGCAAUAUUACGAUGU	-2.34 ± 0.16	-1.65 ± 0.18
CACGAGCAAUAUUACGAUGU	-3.52 ± 0.18	-3.49 ± 0.24
GUUAAGCAAUAUUACGGUAC	-1.7 ± 0.17	-1.33 ± 0.22
AUAAAGCAAUAUUACGAUUC	-0.837 ± 0.085	-0.228 ± 0.097
CGGAAGCAAUAUUACGAUUG	-0.86 ± 0.073	-0.25 ± 0.095
CCGAAGCAAUAUUACGCAUC	-4.21 ± 0.34	
UGUGAGCAAUAUUACGUUCG	-3.41 ± 0.22	-1.32 ± 0.15
UACAAGCAAUAUUACGUCUA	-0.798 ± 0.049	0.00361 ± 0.068
UACCAGCAAUAUUACGAAUG	-0.839 ± 0.055	-0.00427 ± 0.073
AGUCAGCAAUAUUACGAUGG	-1.55 ± 0.062	-0.364 ± 0.083
CUGCAGCAAUAUUACGACUC	-3.27 ± 0.26	-1.98 ± 0.27
GAGAAGCAAUAUUACGCAGA	-2.84 ± 0.17	-1.8 ± 0.19
UGCCAGCAAUAUUACGCCGA	-2.56 ± 0.37	-1.07 ± 0.18
AGUGAGCAAUAUUACGAAGU	-2.49 ± 0.26	0.907 ± 0.22
UGCUAGCAAUAUUACGUUGU	-2.59 ± 0.17	-3.8 ± 0.34
